Experimental data as given in publication PMC2748081 (Reproductive Biology and Endocrinology : RB&E, 2009).

B1: ezrin, recombinant (natural protein, mouse, UniProt P26040 1-586, looked up)
chain: MPKPINVRVTTMDAELEFAIQPNTTGKQLFDQVVKTIGLREVWYFGLQYVDNKGFPTWLKLDKKVSAQEVRKENPVQFKFRAKFYPEDVAEELIQDITQKLFFLQVKDGILSDEIYCPPETAVLLGSYAVQAKFGDYNKEMHKSGYLSSERLIPQRVMDQHKLSRDQWEDRIQVWHAEHRGMLKDSAMLEYLKIAQDLEMYGINYFEIKNKKGTDLWLGVDALGLNIYEKDDKLTPKIGFPWSEIRNISFNDKKFVIKPIDKKAPDFVFYAPRLRINKRILQLCMGNHELYMRRRKPDTIEVQQMKAQAREEKHQKQLERQQLETEKKRRETVEREKEQMLREKEELMLRLQDYEQKTKRAEKELSEQIEKALQLEEERRRAQEEAERLEADRMAALRAKEELERQAQDQIKSQEQLAAELAEYTAKIALLEEARRRKEDEVEEWQHRAKEAQDDLVKTKEELHLVMTAPPPPPPPVYEPVNYHVQEGLQDEGAEPMGYSAELSSEGILDDRNEEKRITEAEKNERVQRQLLTLSNELSQARDENKRTHNDIIHNENMRQGRDKYKTLRQIRQGNTKQRIDEFEAM
notes: ezrin, cDNA by RT-PCR from total RNA of mouse TG cells; primers from the start codon (MPKPINVR) to the stop codon (IDEFEAM); also called ERM protein; source: E. coli DH5α, pCold TF vector, purified (Ni-NTA), tag cleaved with human rhinovirus 3C protease
B2: radixin, recombinant (natural protein, mouse, UniProt P26043 1-583, looked up)
chain: MPKPINVRVTTMDAELEFAIQPNTTGKQLFDQVVKTVGLREVWFFGLQYVDSKGYSTWLKLNKKVTQQDVKKENPLQFKFRAKFFPEDVSEELIQEITQRLFFLQVKEAILNDEIYCPPETAVLLASYAVQAKYGDYNKEIHKPGYLANDRLLPQRVLEQHKLTKEQWEERIQNWHEEHRGMLREDSMMEYLKIAQDLEMYGVNYFEIKNKKGTELWLGVDALGLNIYEHDDKLTPKIGFPWSEIRNISFNDKKFVIKPIDKKAPDFVFYAPRLRINKRILALCMGNHELYMRRRKPDTIEVQQMKAQAREEKHQKQLERAQLENEKKKREIAEKEKERIEREKEELMERLRQIEEQTVKAQKELEEQTRKALELEQERQRAKEEAERLDRERRAAEEAKSAIAKQAADQMKNQEQLAAELAEFTAKIALLEEAKKKKEEEATEWQHKAFAAQEDLEKTKEELKTVMSAPPPPPPPPVIPPTENEHDEQDENSAEASAELSSEGVMNHRSEEERVTETQKNERVKKQLQALSSELAQARDETKKTQNDVLHAENVKAGRDKYKTLRQIRQGNTKQRIDEFEAM
notes: radixin, cDNA by RT-PCR from total RNA of mouse TG cells; primers from the start codon (MPKPINVR) to the stop codon (IDEFEAM); also called ERM protein
B3: moesin, recombinant (natural protein, mouse, UniProt P26041 1-577, looked up)
chain: MPKTISVRVTTMDAELEFAIQPNTTGKQLFDQVVKTIGLREVWFFGLQYQDTKAFSTWLKLNKKVTAQDVRKESPLLFKFRAKFYPEDVSEELIQDITQRLFFLQVKEGILNDDIYCPPETAVLLASYAVQSKYGDFNKEVHKSGYLAGDKLLPQRVLEQHKLNKDQWEERIQVWHEEHRGMLREDAVLEYLKIAQDLEMYGVNYFSIKNKKGSELWLGVDALGLNIYEQNDRLTPKIGFPWSEIRNISFNDKKFVIKPIDKKAPDFVFYAPRLRINKRILALCMGNHELYMRRRKPDTIEVQQMKAQAREEKHQKQMERALLENEKKKRELAEKEKEKIEREKEELMEKLKQIEEQTKKAQQELEEQTRRALELEQERKRAQSEAEKLAKERQEAEEAKEALLQASRDQKKTQEQLASEMAELTARISQLEMARKKKESEAVEWQQKAQMVQEDLEKTRAELKTAMSTPHVAEPAENEHDEQDENGAEASAELRADAMAKDRSEEERTTEAEKNERVQKHLKALTSELANARDESKKTANDMIHAENMRLGRDKYKTLRQIRQGNTKQRIDEFESM
notes: moesin, cDNA by RT-PCR from total RNA of mouse TG cells as the methods say; primers from the start codon (MPKTISVR) to the stop codon (IDEFESM); also called ERM protein; source: E. coli DH5α, pCold TF vector, purified (Ni-NTA), tag cleaved with human rhinovirus 3C protease

Biological target: T1, heat shock cognate protein 70 (Hsc70), recombinant, full length (mouse, UniProt P63017 1-646)
T1 construct: Hsc70 (heat shock cognate protein 70), cDNA by RT-PCR from total RNA of mouse TG cells; primers 'Hsc70 full length' from the start codon (MSKGPAV) to the stop codon (TIEEVD); some vector residues may remain; also called Full Hsc70; recombinant Hsc70; source: E. coli DH5α, pCold TF vector, purified (Ni-NTA), tag cleaved with human rhinovirus 3C protease
T1 sequence (P63017 whole entry): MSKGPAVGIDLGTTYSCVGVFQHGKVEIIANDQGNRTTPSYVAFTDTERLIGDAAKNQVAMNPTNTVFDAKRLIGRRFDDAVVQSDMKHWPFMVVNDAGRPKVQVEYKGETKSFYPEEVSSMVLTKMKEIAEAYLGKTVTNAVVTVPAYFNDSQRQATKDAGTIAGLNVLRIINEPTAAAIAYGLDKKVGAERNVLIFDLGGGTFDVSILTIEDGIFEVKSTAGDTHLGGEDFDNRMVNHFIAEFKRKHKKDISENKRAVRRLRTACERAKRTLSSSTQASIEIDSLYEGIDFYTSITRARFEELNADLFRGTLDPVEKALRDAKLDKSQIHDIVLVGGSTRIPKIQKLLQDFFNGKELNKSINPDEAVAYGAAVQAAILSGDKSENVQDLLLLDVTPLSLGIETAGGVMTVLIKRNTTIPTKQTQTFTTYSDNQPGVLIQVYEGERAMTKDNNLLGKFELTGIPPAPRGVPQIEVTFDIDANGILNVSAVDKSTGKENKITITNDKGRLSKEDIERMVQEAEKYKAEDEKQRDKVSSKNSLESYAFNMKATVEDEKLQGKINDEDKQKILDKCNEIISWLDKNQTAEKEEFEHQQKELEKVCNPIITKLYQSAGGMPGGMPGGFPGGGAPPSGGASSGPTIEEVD
Experiment: pull-down; purified recombinant Hsc70 and each ERM protein (20 μg/ml) mixed in PBS, 37°C 2 h, precipitated with anti-Hsc70 antibody on protein G agarose beads or beads only; detection by immunoblotting
Conditions: both partners purified

Binder | binding result
B1 | binds
B2 | binds
B3 | binds
